Results on 3 molecules are retold here after article PMC6120343 (Nature, 2018).

By stoichiometry N is commonly meant a count of units in the complex or per binding partner.

Substitutions are numbered along the chain they refer to. Names and notes keep the numbering of the source.

The data set “SEC” concerns the molecule itself. Nature of the data set: SEC. Background: Size exclusion chromatography separates by hydrodynamic size, large species first.
Data set [1] concerns the molecule itself. The experiment in a line: cryo-EM 2D class averages.
Data set [2] concerns the molecule itself. The experiment in a line: assembly and coassembly seen by negative stain electron microscopy.
The target in data set [3] is DRP1 E116R mutant, full length (human, UniProt O00429-3 1-710, E116R). The description is as above.

B1: DRP1 G362D, disease-associated mutant, full length (enzyme)
chain: MEALIPVINKLQDVFNTVGADIIQLPQIVVVGTQSSGKSSVLESLVGRDLLPRGTGIVTRRPLILQLVHVSQEDKRKTTGEENGVEAEEWGKFLHTKNKLYTDFDEIRQEIENETERISGNNKGVSPEPIHLKIFSPNVVNLTLVDLPGMTKVPVGDQPKDIELQIRELILRFISNPNSIILAVTAANTDMATSEALKISREVDPDGRRTLAVITKLDLMDAGTDAMDVLMGRVIPVKLGIIGVVNRSQLDINNKKSVTDSIRDEYAFLQKKYPSLANRNGTKYLARTLNRLLMHHIRDCLPELKTRINVLAAQYQSLLNSYGEPVDDKSATLLQLITKFATEYCNTIEGTAKYIETSELCDGARICYIFHETFGRTLESVDPLGGLNTIDILTAIRNATGPRPALFVPEVSFELLVKRQIKRLEEPSLRCVELVHEEMQRIIQHCSNYSTQELLRFPKLHDAIVEVVTCLLRKRLPVTNEMVHNLVAIELAYINTKHPDFADACGLMNNNIEEQRRNRLARELPSAVSRDKLIQDSRRETKNVASGGGGVGDGVQEPTTGNWRGMLKTSKAEELLAEEKSKPIPIMPASPQKGHAVNLLDVPVPVARKLSAREQRDCEVIERLIKSYFLIVRKNIQDSVPKAVMHFLVNHVKDTLQSELVGQLYKSSLLDDLLTESEDMAQRRKEAADMLKALQGASQIIAEIRETHLW
For B1, the “stoichiometry N” value in “SEC” is 2; in data set [1], 24 chains (12 dimers).

B2: DRP1 S611D phosphomimetic mutant, full length (enzyme)
chain: B1 chain with D362G, S611D
Consider B2, for which, in data set [2], the binding result is listed as “binds”.

B3: MID49_(126-454), soluble truncation of Mitochondrial Dynamics 49 without the N-terminal transmembrane anchor (domain or fragment)
chain: TLQERLLAFERDRVTIPAAQVALAKQLAGDIALELQAYFRSKFPELPFGAFVPGGPLYDGLQAGAADHVRLLVPLVLEPGLWSLVPGVDTVARDPRCWAVRRTQLEFCPRGSSPWDRFLVGGYLSSRVLLELLRKALAASVNWPAIGSLLGCLIRPSMASEELLLEVQHERLELTVAVLVAVPGVDADDRLLLAWPLEGLAGNLWLQDLYPVEAARLRALDDHDAGTRRRLLLLLCAVCRGCSALGQLGRGHLTQVVLRLGEDNVDWTEEALGERFLQALELLIGSLEQASLPCHFNPSVNLFSSLREEEIDDIGYALYSGLQEPEGLL
Consider B3, for which, in data set [3], the binding result is “binds”.
